Experimental findings from patent US9618524B2, “Method, composition, isolation and identification of a plaque particle and related biomarker” (Plaxgen Inc., priority 2012, dated 2017) are described below.

B1: Isoform 2 of Glycogen synthase kinase-3 (protein)
chain: MSGRPRTTSFAESCKPVQQPSAFGSMKVSRDKDGSKVTTVVATPGQGPDRPQEVSYTDTKVIGNGSFGVVYQAKLCDSGELVAIKKVLQDKRFKNRELQIMRKLDHCNIVRLRYFFYSSGEKKDEVYLNLVLDYVPETVYRVARHYSRAKQTLPVIYVKLYMYQLFRSLAYIHSFGICHRDIKPQNLLLDPDTAVLKLCDFGSAKQLVRGEPNVSYICSRYYRAPELIFGATDYTSSIDVWSAGCVLAELLLGQPIFPGDSGVDQLVEIIKVLGTPTREQIREMNPNYTEFKFPQIKAHPWTKDSSGTGHFTSGVRVFRPRTPPEAIALCSRLLEYTPTARLTPLEACAHSFFDELRDPNVKLPNGRDTPALFNFTTQELSSNPPLATILIPPHARIQAAASTPTNATAASDANTGDRGQTNNAASASASNST
B2: Isoform C of Fibulin-1 (protein)
chain: DVLLEACCADGHRMATHQKDCSLPYATESKECRMVQEQCCHSQLEELHCATGISLANEQDRCATPHGDNASLEATFVKRCCHCCLLGRAAQAQGQSCEYSLMVGYQCGQVFQACCVKSQETGDLDVGGLQETDKIIEVEEEQEDPYLNDRCRGGGPCKQQCRDTGDEVVCSCFVGYQLLSDGVSCEDVNECITGSHSCRLGESCINTVGSFRCQRDSSCGTGYELTEDNSCKDIDECESGIHNCLPDFICQNTLGSFRCRPKLQCKSGFIQDALGNCIDINECLSISAPCPIGHTCINTEGSYTCQKNVPNCGRGYHLNEEGTRCVDVDECAPPAEPCGKGHRCVNSPGSFRCECKTGYYFDGISRMCVDVNECQRYPGRLCGHKCENTLGSYLCSCSVGFRLSVDGRSCEDINECSSSPCSQECANVYGSYQCYCRRGYQLSDVDGVTCEDIDECALPTGGHICSYRCINIPGSFQCSCPSSGYRLAPNGRNCQDIDECVTGIHNCSINETCFNIQGGFRCLAFECPENYRRSAATRCERLPCHENRECSKLPLRITYYHLSFPTNIQAPAVVFRMGPSSAVPGDSMQLAITGGNEEGFFTTRKVSPHSGVVALTKPVPEPRDLLLTVKMDLSRHGTVSSFVAKLFIFVSAEL
B3: Isoform B of Fibulin-1 (protein)
chain: DVLLEACCADGHRMATHQKDCSLPYATESKECRMVQEQCCHSQLEELHCATGISLANEQDRCATPHGDNASLEATFVKRCCHCCLLGRAAQAQGQSCEYSLMVGYQCGQVFQACCVKSQETGDLDVGGLQETDKIIEVEEEQEDPYLNDRCRGGGPCKQQCRDTGDEVVCSCFVGYQLLSDGVSCEDVNECITGSHSCRLGESCINTVGSFRCQRDSSCGTGYELTEDNSCKDIDECESGIHNCLPDFICQNTLGSFRCRPKLQCKSGFIQDALGNCIDINECLSISAPCPIGHTCINTEGSYTCQKNVPNCGRGYHLNEEGTRCVDVDECAPPAEPCGKGHRCVNSPGSFRCECKTGYYFDGISRMCVDVNECQRYPGRLCGHKCENTLGSYLCSCSVGFRLSVDGRSCEDINECSSSPCSQECANVYGSYQCYCRRGYQLSDVDGVTCEDIDECALPTGGHICSYRCINIPGSFQCSCPSSGYRLAPNGRNCQDIDECVTGIHNCSINETCFNIQGGFRCLAFECPENYRRSAATQKSKKGRQNTPAGSSKEDCRVLPWKQGLEDTHLDA
B4: Ig heavy chain V-III region WEA (protein)
chain: EVQLVESGGGLVQPGGSLRLSCAASGFTFSSYEMNWVRQAPGKGLEWVSYISSSGSTIYYADSVKGRFTISRDNAKNSLYLQMNSLRAEDTAVYYCAR
B5: Protein S100-A7 (protein)
chain: SNTQAERSIIGMIDMFHKYTRRDDKIEKPSLLTMMKENFPNFLSACDKKGTNYLADVFEKKDKNEDKKIDFSEFLSLLGDIATDYHKQSHGAAPCSGGSQ
B6: Junction plakoglobin (protein)
chain: MEVMNLMEQPIKVTEWQQTYTYDSGIHSGANTCVPSVSSKGIMEEDEACGRQYTLKKTTTYTQGVPPSQGDLEYQMSTTARAKRVREAMCPGVSGEDSSLLLATQVEGQATNLQRLAEPSQLLKSAIVHLINYQDDAELATRALPELTKLLNDEDPVVVTKAAMIVNQLSKKEASRRALMGSPQLVAAVVRTMQNTSDLDTARCTTSILHNLSHHREGLLAIFKSGGIPALVRMLSSPVESVLFYAITTLHNLLLYQEGAKMAVRLADGLQKMVPLLNKNNPKFLAITTDCLQLLAYGNQESKLIILANGGPQALVQIMRNYSYEKLLWTTSRVLKVLSVCPSNKPAIVEAGGMQALGKHLTSNSPRLVQNCLWTLRNLSDVATKQEGLESVLKILVNQLSVDDVNVLTCATGTLSNLTCNNSKNKTLVTQNSGVEALIHAILRAGDKDDITEPAVCALRHLTSRHPEAEMAQNSVRLNYGIPAIVKLLNQPNQWPLVKATIGLIRNLALCPANHAPLQEAAVIPRLVQLLVKAHQDAQRHVAAGTQQPYTDGVRMEEIVEGCTGALHILARDPMNRMEIFRLNTIPLFVQLLYSSVENIQRVAAGVLCELAQDKEAADAIDAEGASAPLMELLHSRNEGTATYAAAVLFRISEDKNPDYRKRVSVELTNSLFKHDPAAWEAAQSMIPINEPYGDDMDATYRPMYSSDVPLDPLEMHMDMDGDYPIDTYSDGLRPPYPTADHMLA
B7: Protein-glutamine gamma-glutamyltransferase E (protein)
chain: AALGVQSINWQTAFNRQAHHTDKFSSQELILRRGQNFQVLMIMNKGLGSNERLEFIVSTGPYPSESAMTKAVFPLSNGSSGGWSAVLQASNGNTLTISISSPASAPIGRYTMALQIFSQGGISSVKLGTFILLFNPWLNVDSVFMGNHAEREEYVQEDAGIIFVGSTNRIGMIGWNFGQFEEDILSICLSILDRSLNFRRDAATDVASRNDPKYVGRVLSAMINSNDDNGVLAGNWSGTYTGGRDPRSWNGSVEILKNWKKSGFSPVRYGQCWVFAGTLNTALRSLGIPSRVITNFNSAHDTDRNLSVDVYYDPMGNPLDKGSDSVWNFHVWNEGWFVRSDLGPSYGGWQVLDATPQERSQGVFQCGPASVIGVREGDVQLNFDMPFIFAEVNADRITWLYDNTTGKQWKNSVNSHTIGRYISTKAVGSNARMDVTDKYKYPEGSDQERQVFQKALGKLKPNTPFAATSSMGLETEEQEPSIIGKLKVAGMLAVGKEVNLVLLLKNLSRDTKTVTVNMTAWTIIYNGTLVHEVWKDSATMSLDPEEEAEHPIKISYAQYEKYLKSDNMIRITAVCKVPDESEVVVERDIILDNPTLTLEVLNEARVRKPVNVQMLFSNPLDEPVRDCVLMVEGSGLLLGNLKIDVPTLGPKEGSRVRFDILPSRSGTKQLLADFSCNKFPAIKAMLSIDVAE

The first assay relates to Tau plaque particles. In words: Mass spectroscopy proteomics, semi-quantitative binding affinity of serum proteins (plaqueproteome, Table 2). Also noted: species or system human. The conditions noted are these: higher number = stronger affinity. The gist of the method: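 Synthetic Tau-74 and Tau-275 peptides (1 mg/mL PBS, 37° C, 2 h) aggregated; 30 μg aggregates incubated with 50% serum/plasma 1 h at 37° C, stained with Thioflavin S, and plaque particles sorted by flow cytometry. Bound proteins trypsin-digested and identified by MS/MS against human UniProt.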
As for B1, the “Semi-quantitative analysis of proteins binding to different plaque particles: Tau” value amounted to 0.
As to B2, the “Semi-quantitative analysis of proteins binding to different plaque particles: Tau” value was determined as 0.
Regarding B3, the “Semi-quantitative analysis of proteins binding to different plaque particles: Tau” value is 0.
Consider B4, for which the “Semi-quantitative analysis of proteins binding to different plaque particles: Tau” value is 1.
B5: the “Semi-quantitative analysis of proteins binding to different plaque particles: Tau” value is listed as 0.
B6: the “Semi-quantitative analysis of proteins binding to different plaque particles: Tau” value is listed as 0.
For the molecule B7, the “Semi-quantitative analysis of proteins binding to different plaque particles: Tau” value turned out to be 0.

A further assay addresses T1, Abeta-42 plaque particles (Homo sapiens, UniProt P05067).
T1 construct: Abeta 1-42
Described as above. The settings on record: higher number = stronger affinity. The gist of the method:
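AD patient serum or plasma (50% in PBS) was incubated with Abeta-42 aggregates (30 μg) for 1 h at 37 °C, then stained with Thioflavin S for 30 min. Labeled particles were FACS-sorted, trypsin/Lys-C digested overnight and analyzed by MS/MS. Sequest searched human UniProt; Scaffold/Protein Prophet validated the identifications.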
On to B1, for which the “Semi-quantitative analysis of proteins binding to different plaque particles: Abeta-42” value is 4.
Turning to B2, the “Semi-quantitative analysis of proteins binding to different plaque particles: Abeta-42” value stood at 0.
On to B3, for which the “Semi-quantitative analysis of proteins binding to different plaque particles: Abeta-42” value was determined as 0.
On to B4, for which the “Semi-quantitative analysis of proteins binding to different plaque particles: Abeta-42” value is 2.
For the molecule B5, the “Semi-quantitative analysis of proteins binding to different plaque particles: Abeta-42” value stood at 2.
For the molecule B6, the “Semi-quantitative analysis of proteins binding to different plaque particles: Abeta-42” value amounted to 2.
Still for that read-out and setting: then B7, with 2.

In the next assay the target is T2, alpha-synuclein plaque particles (Homo sapiens, UniProt P37840).
T2 construct: 140 amino acids polypeptide
Described as above. The settings on record: higher number = stronger affinity. Summed up: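 AD-subject plasma or serum (800 μL of 50%) mixed with 30 μg preformed alpha-synuclein aggregates for 1 h at 37 °C; Thioflavin S-positive particles isolated by flow sorting. After reduction, acrylamide alkylation and overnight tryptic digestion, serum proteins identified by MS/MS with Sequest and Scaffold.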
For the molecule B1, the “Semi-quantitative analysis of proteins binding to different plaque particles: Synuclein” value is 0.
For the molecule B2, the “Semi-quantitative analysis of proteins binding to different plaque particles: Synuclein” value amounted to 1.
In the case of B3, the “Semi-quantitative analysis of proteins binding to different plaque particles: Synuclein” value amounted to 1.
Same read-out and setting: the figure for B4 is 1; for B5 it is 0; for B6 it is 0.
In the case of B7, the “Semi-quantitative analysis of proteins binding to different plaque particles: Synuclein” value was 0.

The test system of a further assay is High Density cholesterol (Chl Large) plaque particles. The assay is described as above. Also noted: species or system human. The settings on record: higher number = stronger affinity. The gist of the method: (§1)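 Serum or plasma from atherosclerotic subjects, as 50% serum, was incubated with 30 μg cholesterol aggregates for 1 h at 37 °C. High- and low-density particles were then flow-sorted, trypsin-digested and analysed by MS/MS. Proteins were identified by Sequest search against human UniProt and validated with Protein Prophet.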
As to B1, the “Semi-quantitative analysis of proteins binding to different plaque particles: Chl Large” value is 0.
Take B2: the “Semi-quantitative analysis of proteins binding to different plaque particles: Chl Large” value is 1.
B3: the “Semi-quantitative analysis of proteins binding to different plaque particles: Chl Large” value amounted to 3.
In the case of B4, the “Semi-quantitative analysis of proteins binding to different plaque particles: Chl Large” value is given as 1.
On the same count and under the same terms, the figure for B5 is 0; for B6 it is 0; for B7 it is 0.

Another assay deals with Low density cholesterol (Chl small) plaque particles. Described as above. The settings on record: higher number = stronger affinity. Also noted: species or system human. The gist of the method: as §1
Turning to B1, the “Semi-quantitative analysis of proteins binding to different plaque particles: Chl small” value was 0.
Regarding B2, the “Semi-quantitative analysis of proteins binding to different plaque particles: Chl small” value is reported as 2.
On the same count and under the same terms, then B3, with 3; and B4, with 1.
For the molecule B5, the “Semi-quantitative analysis of proteins binding to different plaque particles: Chl small” value came to 0.
For the molecule B6, the “Semi-quantitative analysis of proteins binding to different plaque particles: Chl small” value stood at 0.
Regarding B7, the “Semi-quantitative analysis of proteins binding to different plaque particles: Chl small” value was found to be 0.
